B1: Nuclear factor NF-kappa-B p100 subunit (Homo sapiens), Q00653 (parent)
chain: MESCYNPGLDGIIEYDDFKLNSSIVEPKEPAPETADGPYLVIVEQPKQRGFRFRYGCEGPSHGGLPGASSEKGRKTYPTVKICNYEGPAKIEVDLVTHSDPPRAHAHSLVGKQCSELGICAVSVGPKDMTAQFNNLGVLHVTKKNMMGTMIQKLQRQRLRSRPQGLTEAEQRELEQEAKELKKVMDLSIVRLRFSAFLRASDGSFSLPLKPVISQPIHDSKSPGASNLKISRMDKTAGSVRGGDEVYLLCDKVQKDDIEVRFYEDDENGWQAFGDFSPTDVHKQYAIVFRTPPYHKMKIERPVTVFLQLKRKRGGDVSDSKQFTYYPLVEDKEEVQRKRRKALPTFSQPFGGGSHMGGGSGGAAGGYGGAGGGGSLGFFPSSLAYSPYQSGAGPMGCYPGGGGGAQMAATVPSRDSGEEAAEPSAPSRTPQCEPQAPEMLQRAREYNARLFGLAQRSARALLDYGVTADARALLAGQRHLLTAQDENGDTPLHLAIIHGQTSVIEQIVYVIHHAQDLGVVNLTNHLHQTPLHLAVITGQTSVVSFLLRVGADPALLDRHGDSAMHLALRAGAGAPELLRALLQSGAPAVPQLLHMPDFEGLYPVHLAVRARSPECLDLLVDSGAEVEATERQGGRTALHLATEMEELGLVTHLVTKLRANVNARTFAGNTPLHLAAGLGYPTLTRLLLKAGADIHAENEEPLCPLPSPPTSDSDSDSEGPEKDTRSSFRGHTPLDLTCSTKVKTLLLNAAQNTMEPPLTPPSPAGPGLSLGDTALQNLEQLLDGPEAQGSWAELAERLGLRSLVDTYRQTTSPSGSLLRSYELAGGDLAGLLEALSDMGLEEGVRLLRGPETRDKLPSTAEVKEDSAYGSQSVEQEAEKLGPPPEPPGGLCHGHPQPQVH

What was measured:
fbw1a_human BTRC, Q9Y297 = variants of: B1; settings: with fbw1a_human BTRC
fbw1a_human BTRC, Q9Y297, sequence (Q9Y297 whole entry): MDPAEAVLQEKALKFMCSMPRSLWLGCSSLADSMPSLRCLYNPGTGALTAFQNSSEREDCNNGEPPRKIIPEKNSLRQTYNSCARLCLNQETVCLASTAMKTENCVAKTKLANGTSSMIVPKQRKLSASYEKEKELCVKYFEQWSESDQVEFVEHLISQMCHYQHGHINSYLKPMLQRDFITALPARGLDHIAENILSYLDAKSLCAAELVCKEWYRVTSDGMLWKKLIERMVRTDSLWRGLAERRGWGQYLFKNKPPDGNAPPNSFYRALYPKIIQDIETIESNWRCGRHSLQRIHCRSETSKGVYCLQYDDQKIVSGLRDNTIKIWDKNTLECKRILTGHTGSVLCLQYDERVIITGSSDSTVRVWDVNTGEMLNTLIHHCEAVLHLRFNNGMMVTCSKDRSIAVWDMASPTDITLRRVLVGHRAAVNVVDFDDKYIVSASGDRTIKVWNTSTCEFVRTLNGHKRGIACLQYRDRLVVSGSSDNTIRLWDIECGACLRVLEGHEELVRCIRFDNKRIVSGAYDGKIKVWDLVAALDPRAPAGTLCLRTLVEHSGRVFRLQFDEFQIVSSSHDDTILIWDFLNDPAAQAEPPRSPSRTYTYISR

ubc_human UBC, P0CG48 = variants of: B1; settings: with ubc_human UBC
ubc_human UBC, P0CG48, sequence (P0CG48 whole entry, looked up): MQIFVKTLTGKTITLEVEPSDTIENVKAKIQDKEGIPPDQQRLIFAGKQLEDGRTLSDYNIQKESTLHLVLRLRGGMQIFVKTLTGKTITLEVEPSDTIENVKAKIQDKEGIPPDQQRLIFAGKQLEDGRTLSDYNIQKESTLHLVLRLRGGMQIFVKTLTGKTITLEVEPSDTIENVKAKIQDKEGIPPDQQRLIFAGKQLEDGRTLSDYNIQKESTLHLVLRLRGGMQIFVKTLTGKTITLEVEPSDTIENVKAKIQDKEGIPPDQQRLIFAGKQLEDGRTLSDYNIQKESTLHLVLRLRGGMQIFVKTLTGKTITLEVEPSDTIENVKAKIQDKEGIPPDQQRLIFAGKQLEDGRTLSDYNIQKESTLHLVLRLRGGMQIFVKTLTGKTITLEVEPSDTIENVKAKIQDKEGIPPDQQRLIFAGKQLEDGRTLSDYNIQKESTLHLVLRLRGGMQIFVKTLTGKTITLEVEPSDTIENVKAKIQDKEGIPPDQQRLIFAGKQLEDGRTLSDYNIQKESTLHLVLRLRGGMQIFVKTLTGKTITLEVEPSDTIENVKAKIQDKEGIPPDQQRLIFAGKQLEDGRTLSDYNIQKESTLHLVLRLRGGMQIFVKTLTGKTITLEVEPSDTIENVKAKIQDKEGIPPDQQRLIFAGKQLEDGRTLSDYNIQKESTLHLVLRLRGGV

Row | Variant | effect of a mutation on the interaction (fbw1a_human BTRC, Q9Y297) | effect of a mutation on the interaction (ubc_human UBC, P0CG48)
1 | K689R | decreasing interaction | decreasing interaction
2 | K298R | decreasing interaction | decreasing interaction
3 | K90R | decreasing interaction | decreasing interaction
4 | K863R | decreasing interaction | decreasing interaction
